Our source for the amyloid nucleation score values is the supplement of paper PMC12042874.

± gives the uncertainty stated by the source.

The data set is described as follows: amyloid nucleation score (Sup35N fusion, yeast selection) (log enrichment); library NNK2; higher = more nucleation; inactive = no reads after selection. The procedure, abridged: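 Output and input plasmid inserts were sequenced by Illumina after psi-negative yeast carrying Sup35N fused to peptides of 20 random codons had been induced 24 hours with 100 μM copper sulfate and grown 7 days at 30°C on medium lacking adenine and uracil. The nucleation score is the DiMSum log enrichment of output over input reads, centred on the mode score of non-aggregating sequences. Sequences with under 100 input reads were excluded.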
The substance HRVFNEGASMGTCCSILLEM returned an amyloid nucleation score of 6.047 ± 0.042.

Substance LATNNVS returned an amyloid nucleation score of 0.979 ± 0.67. With SVLLVSLDFSPITGYSKGGL the figure was 2.72 ± 0.082. The value for VGRVNIVSDLMVPNSHYICS was -0.056 ± 0.76; that for MRFSCWADIVRGDLIPHFVV was 2.84 ± 0.09; that for GTMLMGVE was 0.449 ± 0.8.

In turn, KRWQVLFDRSRKYCRVGKT showed an amyloid nucleation score of 0.161 ± 0.56. With RGMTRVVFTVMLLRLWYSQS the figure was 0.659 ± 0.21. With RAMYECF the figure was 0.604 ± 0.41; with ECNSSALHNWKY, 0.088 ± 0.54. With FKTVCVGKCLVFMVTDAELI the figure was -1.49 ± 0.76; with LRNFSYIRQGGSRVSSASGY, -1.18 ± 1.1. In the case of RGVCLNNLMWGTLGTRKALL, the amyloid nucleation score is -0.797 ± 1. The value for KDLGA was 3.08 ± 0.13; that for CISTYN was -0.822 ± 0.44; that for VWVPQSVIRSLHLPSN was -1.01 ± 1.1. With WSPIGSFRCCGWCSSHQVRI the figure was 0.179 ± 0.57. The value for KNNRVAFTLYFSQTARDWMH was 5.156 ± 0.046; that for GMSQAIVGVICSGIYLPEVR was 0.44 ± 0.37. Regarding HSMAWNVG, the amyloid nucleation score entry is “inactive”. With RVQVQLLISVYFFLYLPHSI the figure was -1.58 ± 0.41. The value for ALEMSMGKCFWGLVVVIMRW was -0.899 ± 0.36. The value for GVVLNLDTWLVDEVPDGVRM was 0.057 ± 0.76; that for VTGNKEVMKIRCWVAHEESD was 1.32 ± 0.37. In turn, EIYCCAYPLFCVWVVTGIRL showed an amyloid nucleation score of 1.62 ± 0.13. Take YAVWLDMGFILIIACVGKYN: the amyloid nucleation score is -0.747 ± 1.1. The value for SGSYF was -0.504 ± 0.45. The value for TLCTVSHLNDSLLIFIRFVV was “inactive”; that for VGDSMMWVTDRAKGVPYGGD was 0.285 ± 0.65; that for FVRSWSTCCDA was -0.176 ± 0.31. The substance GNVGTRPQINTGSVCYMSCI showed an amyloid nucleation score of 4.6 ± 0.057. The value for SVSETLWYDYIFKFVISVAN was -1.03 ± 0.63; that for CPRVSVSSVLMGKLFL was -1.15 ± 0.54; that for CQIVGRHIGVRMCDDRVYRA was 0.762 ± 0.6. With NVGGIASLGPFTY the figure was -0.14 ± 0.27; with DISELDVCFL, -0.287 ± 0.33.

In the case of VTYWFLLHNIRRLPRYIWLR, the amyloid nucleation score is -0.664 ± 0.48. With HSRHHWYPSWQFWMLRPQNC the figure was 1.4 ± 0.43; with LDYRWKTGGSLWGG, -0.578 ± 1.1; with CLYFFLSYRSCCINVFLGFC, -0.326 ± 1. The value for RLNVISIQNAIMRVVRTKRF was 3.61 ± 0.12. The value for LMFMLRYPLHASWLGSTHVY was 0.422 ± 0.44; that for TCNWGMDG was 0.553 ± 0.62. Take VTIIVLPANVMLMWVFCYMY: the amyloid nucleation score was -0.93 ± 0.78.

Take LAALR: the amyloid nucleation score is 0.159 ± 0.3. The value for WGSISNIFYLLRVLYCLSMS was 1.79 ± 0.26; that for LVTARQLARI was 0.121 ± 0.24; that for DCLFLKVSPLVHQYYWIGFD was 0.306 ± 0.8. The value for GLSLLRGTNSGSAARLGANG was 0.452 ± 0.32.

As to SVIDFLLAYRKDLWCWDLT, the amyloid nucleation score turned out to be 0.19 ± 0.8.

In the case of DFILGYVDS, the amyloid nucleation score was -0.65 ± 1. With NLLTPFRLRPKTHLDLYRSC the figure was -0.196 ± 1.1. The value for SHWLHGFSH was “inactive”; that for EWIIERRSL was -0.279 ± 0.63; that for IKYLKCIVMCRFFVHWSSIV was -1.06 ± 0.76.

As to SSVISLNILFFMGEPENSLL, the amyloid nucleation score turned out to be 6.424 ± 0.05.

On to NSGSGAAFGVSLHVVNCARS, for which the amyloid nucleation score was determined as 0.045 ± 0.79.

In the case of SHNGHVLVPNRVVSITSCHR, the amyloid nucleation score came out at 0.147 ± 0.76. As for HVEHGNCFQ, the amyloid nucleation score result is “inactive”. With CIYMSRSRRKCGCSLGTRYV the figure was -0.393 ± 1; with SSFLATVSVQCNDRYNSHRS, 4.26 ± 0.064; with NISCNSGSPGSNMTGCQESS, 0.767 ± 0.8. The value for SNSFVVFSRVVTRKFVCVLW was -0.691 ± 0.46.

Consider LFDFGETVVIVLHVHSMLCL, for which the amyloid nucleation score was 4.41 ± 0.092. With MKPAWYIVNEWLSGTRLECM the figure was -0.035 ± 0.49; with VIHSPQMLSWSSHGNARFSK, 0.628 ± 0.33.

Turning to WRIYQDTFCLSIS, the amyloid nucleation score is 3.87 ± 0.076. With LYLTRMFTTNAL the figure was 0.806 ± 0.58. As for FLMISWSLWGFFLY, the amyloid nucleation score result was “inactive”. VLWCGDLFAYLYMYVFSSNS registered an amyloid nucleation score of 7.516 ± 0.051.

As for MMNTKFINWDKMLDIGYRAD, the amyloid nucleation score came to 0.877 ± 0.8. On to RIHFGFRMMMCRDIRIFTSQ, for which the amyloid nucleation score came out at 6.06 ± 0.064. The value for FWLNMYSVETVYGVVFAWEK was -0.694 ± 0.31. The value for LGTAKNFIPSGNVRLLALQF was “inactive”; that for VRDFCRWASDVRCSNGWRVA was 0.384 ± 0.65; that for LKVAVLVSGLGLA was 0.54 ± 0.46. With SCSVGRNKMWILVLVVVWGE the figure was 0.035 ± 0.54. With LIVVKCLSRRYCFCLLSVVV, the amyloid nucleation score came to 0.303 ± 0.32. The value for QLFVMADNVRESSKTLRTIW was -0.513 ± 0.35; that for HAACCASNLLWGRFFWSCAD was 2.74 ± 0.084; that for RDWQYRIYVQCNR was 2.17 ± 0.14. With MFSSMSVLCKYILASWASHK the figure was -0.58 ± 0.63; with LSDFEIFTLTIHSHLYHN, 1.66 ± 0.24.

In the case of LFVYWV, the amyloid nucleation score was found to be 0.126 ± 0.38. With TIWVATLDFPNSYMSSALFV the figure was 4.27 ± 0.093. The value for FISSSYSKEFSIYEFIDIFR was -0.539 ± 0.54; that for TLGTLRQ was 1.59 ± 0.23; that for YMTVSRVHISRVCCVYTLNV was 5.44 ± 0.064. For the substance IVKFKKRVDRHLSSGDQLVR, the amyloid nucleation score was 1.19 ± 0.61. GAIDLMDALRCPAKTDTR showed an amyloid nucleation score of 0.811 ± 0.67.

Turning to DDSFML, the amyloid nucleation score is -0.134 ± 1.1. Regarding YESHLCVFTCWTFRFLNVMD, the amyloid nucleation score was -1.01 ± 1.1. The value for GISCYMAPSGCRHNSVMSLW was 0.611 ± 0.5; that for CKRFFYFLGIPATPDRSAFS was -0.588 ± 0.76.

As for SVCGLWWLSHSVQRWSEWYS, the amyloid nucleation score was found to be 5.99 ± 0.067. The value for WEASSFKVSGLSGSHHPSKG was 2.3 ± 0.13; that for LQSTILIYVVNFFTTGIMGK was 1.75 ± 0.11; that for CRLRVDVGECDRGLYALRVW was 1.21 ± 0.48. With RMVMSE the figure was 0.16 ± 0.31; with LCPLTHFFVFEVYFSDPYRE, 5.69 ± 0.075; with HFIGVD, -0.156 ± 0.28. As for AKFTL, the amyloid nucleation score is -0.253 ± 0.3. As for LVKCRGATCLIVTSDRLLYV, the amyloid nucleation score entry is “inactive”. The substance SDTSVRGLLLEVCRWSGWVA yielded an amyloid nucleation score of 1.33 ± 0.35.

Substance VYCVGNMSLGGLMDNCWYAG showed an amyloid nucleation score of 4.41 ± 0.062. The value for YCLSIWIDLSFIFVIRVDSG was “inactive”. The value for IGKRASSPYYRPSIVVYSWD was -0.302 ± 0.32; that for WVAKYLFSLEDHVSVRIVDI was 0.227 ± 0.56. With TSTCNRRVIWMHLEPGELCV the figure was -0.375 ± 0.76. For FWVLDSSADYRAS, the amyloid nucleation score came out at 5.62 ± 0.075. With PHVFYCSILV the entry was “inactive”; with FRLAVFSEFQCFR, 1.9 ± 0.12; with SLDIDQTVRFTTK, 5.618 ± 0.036. For YLGAGPSNILCHPFISAGSN, the amyloid nucleation score result is “inactive”. Consider HKGCGNSCIWHYFGNFWRFR, for which the amyloid nucleation score was -0.658 ± 0.56. WATFRPD: the amyloid nucleation score came out at 0.31 ± 0.54.

AWSVIEGFQHREAFVTYRGQ registered an amyloid nucleation score of 3.7 ± 0.063. With CPVLG the figure was 1.87 ± 0.32; with DHRLYQSFKALRVPSVVLRG, -0.766 ± 0.79. The value for MCRYCLVWYGFLNYSTLTRG was -1.37 ± 0.62; that for PPRGRTAINMTSKCQARVRP was 0.966 ± 0.3; that for AVIMRFVYYDAYWGLWMVKE was 0.228 ± 1. With ILLTFVPAEKSWTSAIL the figure was 0.058 ± 0.55. As to SMNFRTTSSHSDILYPALC, the amyloid nucleation score was found to be 0.24 ± 0.48.

Regarding YGMKTGVNIFVVDVEMVKRS, the amyloid nucleation score was found to be 5.93 ± 0.068. Regarding DKREQRLRQSQILMCGDGGF, the amyloid nucleation score is 0.157 ± 0.76. As to STSVTMHSLSDF, the amyloid nucleation score is -1.02 ± 0.78. VGAMSIMKVLNFHDDILTVT: the amyloid nucleation score result was “inactive”. With KKDSSWFRLNDKKVVSSHKR, the amyloid nucleation score is -0.215 ± 0.2. With TFNRFFRCSVFAFRA the figure was 4.53 ± 0.062; with IVMVPFLTIPVLYLVVMSSL, -0.788 ± 1.1; with QFNKIDWMHKMFTSSRVNMS, -0.166 ± 0.31. With LYLMSHTGFLSNTHIRLAPR the figure was -0.291 ± 1.1; with SFVCWITVCNFRVSQ, 3.21 ± 0.12; with KLGVKLASTLGISRLPHTTS, 0.827 ± 0.23. With LYGGCRKWFTRTCFSFHMYR the figure was 0.562 ± 0.81; with LTGLFAGLKGKCLFTVNRGI, -0.318 ± 0.44; with NGTSLTMTYIRKLAFRGLEK, 0.215 ± 0.26.

Turning to LARGCFAFN, the amyloid nucleation score is -0.363 ± 1.
